B1: 137-7 VHH-hFc recombinant antibody (Fc fusion)
chain: QVQLVESGGGLVQPGGSLRLSCAASGFTLDSYAIAWFRQAPGKEREGVSCITSSGGSTNYADSVKGRFTISRDGAKNTVYLQLNSLKPEDTAIYYCAAFHRATCVILGEYDYWGQGTQVTVSS
notes: VHH fragment inserted into vector pFclG with human IgG1 Fc tag, expressed in HEK293F; also called CD137-7; not shown: human IgG1 Fc tag of the eukaryotic expression vector pFclG
B2: 137-39 VHH-hFc recombinant antibody (Fc fusion)
chain: QVQLVESGGGLVHVGESLTLSCVISGGSSNLYGIGWYRQAPGQERKLVAVLHNEHTTKYLDSVKGRFFVSGDNAKNTLYLHMNNVKVEDTAVYYCNSASGTLAGTGYFASVGPWGQGTLVTVSS
notes: VHH fragment inserted into vector pFclG with human IgG1 Fc tag, expressed in HEK293F; Preparation had non-specific bands, purity about 30%; not shown: human IgG1 Fc tag of the eukaryotic expression vector pFclG
B3: 137-12 VHH-hFc recombinant antibody (Fc fusion)
chain: QVQLVESGGGLVHPGGSLRLSCAASGFTLDDSAIGWFRQAPGKEREGVSCRSRSGYMTKYADSVKGRFTISRYNANNTMYLQMNSLKPEDTAVYYCATTRRGYCSGYETKGVDYWGQGIQVTVSS
notes: VHH fragment inserted into vector pFclG with human IgG1 Fc tag, expressed in HEK293F; not shown: human IgG1 Fc tag of the eukaryotic expression vector pFclG
B4: 137-36 VHH-hFc recombinant antibody (Fc fusion)
chain: QVQLVESGGGLVQTGGSLTLSCVASGRRFEAYTIGWLRQAPGDLREGVGCIFGGTTFTGYDDSVKGRFTISRDTAKNTVYLRMNNLTSEDTATYYCAAEGRPGQIKGQHGCLTPSWYNYKGQGTQVTVSS
notes: as for B3
B5: 137-16 VHH-hFc recombinant antibody (Fc fusion)
chain: EVQLVESGGGLVQAGASLTLSCVISGRTFSSYAMGWYRQAPGKERAFVGTITWNNDIIYSDSVKGRFTISTDDGKNTMYLQMNNLKPEDTAVYYCAAYSVPYGDFCTLNYDLMDYWGKGTLVTVSS
notes: VHH fragment inserted into vector pFclG with human IgG1 Fc tag, expressed in HEK293F; Preparation had non-specific bands, purity >70%; also called CD137-16; not shown: human IgG1 Fc tag of the eukaryotic expression vector pFclG

Where “and” joins values, the source holds several entries; their conditions need not be identical. Identical values can stand only once.

One assay addresses T1, Mouse 4-1BB extracellular region recombinant protein (his-tag) (mouse, UniProt P20334 24-187).
T1 construct: extracellular domain; also called Mouse4-1BB, his-tag; not shown: his-tag
T1 sequence (looked up): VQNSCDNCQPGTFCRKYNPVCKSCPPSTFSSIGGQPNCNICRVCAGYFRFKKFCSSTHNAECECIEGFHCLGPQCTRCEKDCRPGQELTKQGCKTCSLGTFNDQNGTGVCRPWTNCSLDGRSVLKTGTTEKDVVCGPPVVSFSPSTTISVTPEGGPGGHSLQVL
Put plainly: ELISA, coated mouse 4-1BB his-tag 200 ng/well.
With B1, the binding result is on record as “no binding (tested: 0.014-10 µg/mL)”.

For a further assay, the target named is T2, Human 4-1BB extracellular domain recombinant protein (his-tag) (human, UniProt Q07011 24-186).
T2 construct: extracellular domain; also called Human4-1BB, his-tag; human 4-1BB extracellular region recombinant protein; not shown: his-tag
Nature of the assay: ELISA, coated human 4-1BB-his 200 ng/well. Background: An ELISA detects its analyte on a solid surface through an enzyme-linked reagent.
The EC50 is the concentration at which the effect is half-maximal. Take B2: the EC50 is 6.04 µg/mL and 75.6 nM.

B3: the EC50 is 6.3e-05 µg/mL and 0.001 nM.

For the molecule B4, the EC50 was 0.001 µg/mL and 0.011 nM.

For B5, the EC50 was 0.536 µg/mL and 6.7 nM.

For B1, the EC50 is 0.09 µg/mL and 1.12 nM.

The next assay deals with T3, Monkey 4-1BB extracellular region recombinant protein (his-tag) (monkey).
T3 construct: extracellular domain; also called Monkey4-1BB, his-tag
Put plainly: ELISA, coated monkey 4-1BB-his 200 ng/well.
Take B2: the EC50 is 0.001 µg/mL and 0.012 nM.

B3: the EC50 is 10.3 µg/mL and 128 nM.

Turning to B4, the EC50 is 51.9 µg/mL and 649 nM.

As to B5, the EC50 was 0.234 µg/mL and 2.93 nM.

For B1, the EC50 is 0.17 µg/mL and 2.12 nM.

In a further assay the target is T2, Human 4-1BB extracellular domain …. Put plainly: ELISA, coated human 4-1BB-his 200 ng/well; antibody 0.12 µg/ml.
As to B2, the “absorbance at 450 nm” value amounted to 0.461.

As for B3, the “absorbance at 450 nm” value was 0.334.

B4: the “absorbance at 450 nm” value came out at 0.383.

For the molecule B5, the “absorbance at 450 nm” value amounted to 0.704.

Consider B1, for which the “absorbance at 450 nm” value is 2.37.

The next assay shares this target. Put plainly: ELISA, coated human 4-1BB-his 200 ng/well; antibody 0.37 µg/ml.
Consider B2, for which the “absorbance at 450 nm” value was determined as 0.458.

Regarding B3, the “absorbance at 450 nm” value was 0.341.

Take B4: the “absorbance at 450 nm” value stood at 0.347.

Turning to B5, the “absorbance at 450 nm” value was 1.58.

The target is the same in a further assay. Nature of the assay: ELISA, coated human 4-1BB-his 200 ng/well; antibody 1.11 µg/ml.
Take B2: the “absorbance at 450 nm” value worked out at 0.62.

B3: the “absorbance at 450 nm” value was determined as 0.376.

Take B4: the “absorbance at 450 nm” value was determined as 0.414.

B5: the “absorbance at 450 nm” value worked out at 3.52.

The next assay has the same target. Nature of the assay: ELISA, coated human 4-1BB-his 200 ng/well; antibody 10.0 µg/ml.
Regarding B2, the “absorbance at 450 nm” value was found to be 1.45.

Regarding B3, the “absorbance at 450 nm” value amounted to 0.432.

As to B4, the “absorbance at 450 nm” value amounted to 0.48.

The next assay has the same target. Put plainly: ELISA, coated human 4-1BB-his 200 ng/well; antibody 3.33 µg/ml.
For B2, the “absorbance at 450 nm” value was found to be 1.

Turning to B3, the “absorbance at 450 nm” value was determined as 0.433.

As to B4, the “absorbance at 450 nm” value came out at 0.454.

In another assay the target is T1, Mouse 4-1BB extracellular region …. Put plainly: ELISA, coated mouse 4-1BB-his 200 ng/well; antibody 0.12 µg/ml.
On to B1, for which the “absorbance at 450 nm” value came out at 0.166.

Another assay has the same target. Nature of the assay: ELISA, coated mouse 4-1BB-his 200 ng/well; antibody 0.37 µg/ml.
Consider B1, for which the “absorbance at 450 nm” value worked out at 0.201.

A further assay shares this target. Put plainly: ELISA, coated mouse 4-1BB-his 200 ng/well; antibody 1.11 µg/ml.
Turning to B1, the “absorbance at 450 nm” value was 0.191.

The target is the same in a further assay. Put plainly: ELISA, coated mouse 4-1BB-his 200 ng/well; antibody 10.0 µg/ml.
Consider B1, for which the “absorbance at 450 nm” value was determined as 0.284.

A further assay has the same target. Put plainly: ELISA, coated mouse 4-1BB-his 200 ng/well; antibody 3.33 µg/ml.
On to B1, for which the “absorbance at 450 nm” value amounted to 0.218.

For the next assay, the target named is T2, Human 4-1BB extracellular domain …. Nature of the assay: ELISA, coated human 4-1BB-his 200 ng/well; antibody 0.014 µg/ml.
For the molecule B2, the “absorbance at 450 nm” value was determined as 0.521.

For B3, the “absorbance at 450 nm” value came to 0.395.

For the molecule B4, the “absorbance at 450 nm” value was 0.413.

Regarding B5, the “absorbance at 450 nm” value was 0.41.

For the molecule B1, the “absorbance at 450 nm” value worked out at 0.589.

For the next assay the target is unchanged. Put plainly: ELISA, coated human 4-1BB-his 200 ng/well; antibody 0.041 µg/ml.
In the case of B2, the “absorbance at 450 nm” value stood at 0.477.

Take B3: the “absorbance at 450 nm” value turned out to be 0.355.

With B4, the “absorbance at 450 nm” value amounted to 0.372.

Turning to B5, the “absorbance at 450 nm” value came out at 0.419.

On to B1, for which the “absorbance at 450 nm” value came out at 0.963.

In a further assay the target is T3, Monkey 4-1BB extracellular region …. Put plainly: ELISA, coated monkey 4-1BB-his 200 ng/well; antibody 0.12 µg/ml.
B2: the “absorbance at 450 nm” value turned out to be 0.306.

Take B3: the “absorbance at 450 nm” value was 0.376.

Take B4: the “absorbance at 450 nm” value was found to be 0.372.

Consider B5, for which the “absorbance at 450 nm” value worked out at 1.17.

Turning to B1, the “absorbance at 450 nm” value amounted to 1.54.

A further assay has the same target. Put plainly: ELISA, coated monkey 4-1BB-his 200 ng/well; antibody 0.37 µg/ml.
In the case of B2, the “absorbance at 450 nm” value came to 0.251.

On to B3, for which the “absorbance at 450 nm” value turned out to be 0.343.

In the case of B4, the “absorbance at 450 nm” value stood at 0.276.

As for B5, the “absorbance at 450 nm” value came out at 2.79.

For B1, the “absorbance at 450 nm” value amounted to 3.19.

A further assay shares this target. Nature of the assay: ELISA, coated monkey 4-1BB-his 200 ng/well; antibody 1.11 µg/ml.
As to B2, the “absorbance at 450 nm” value is 0.286.

In the case of B3, the “absorbance at 450 nm” value was found to be 0.423.

As to B4, the “absorbance at 450 nm” value was 0.456.

For a further assay the target is unchanged. Nature of the assay: ELISA, coated monkey 4-1BB-his 200 ng/well; antibody 10.0 µg/ml.
On to B2, for which the “absorbance at 450 nm” value was found to be 0.405.

Consider B3, for which the “absorbance at 450 nm” value stood at 1.07.

On to B4, for which the “absorbance at 450 nm” value came out at 1.91.

For a further assay the target is unchanged. Nature of the assay: ELISA, coated monkey 4-1BB-his 200 ng/well; antibody 3.33 µg/ml.
B2: the “absorbance at 450 nm” value came to 0.342.

For the molecule B3, the “absorbance at 450 nm” value was 0.679.

As for B4, the “absorbance at 450 nm” value turned out to be 0.879.

The target of another assay is T1, Mouse 4-1BB extracellular region …. Nature of the assay: ELISA, coated mouse 4-1BB-his 200 ng/well; antibody 0.014 µg/ml.
For B1, the “absorbance at 450 nm” value turned out to be 0.187.

The target is the same in the next assay. Put plainly: ELISA, coated mouse 4-1BB-his 200 ng/well; antibody 0.041 µg/ml.
B1: the “absorbance at 450 nm” value was 0.18.

The target in a further assay is T3, Monkey 4-1BB extracellular region …. Put plainly: ELISA, coated monkey 4-1BB-his 200 ng/well; antibody 0.014 µg/ml.
For B2, the “absorbance at 450 nm” value stood at 0.292.

On to B3, for which the “absorbance at 450 nm” value came to 0.385.

For the molecule B4, the “absorbance at 450 nm” value is 0.333.

Regarding B5, the “absorbance at 450 nm” value is 0.447.

As for B1, the “absorbance at 450 nm” value was 0.581.

A further assay has the same target. Nature of the assay: ELISA, coated monkey 4-1BB-his 200 ng/well; antibody 0.041 µg/ml.
As to B2, the “absorbance at 450 nm” value came out at 0.387.

With B3, the “absorbance at 450 nm” value turned out to be 0.37.

Consider B4, for which the “absorbance at 450 nm” value was 0.354.

Turning to B5, the “absorbance at 450 nm” value came out at 0.581.

For the molecule B1, the “absorbance at 450 nm” value is 0.794.

In a further assay the target is T2, Human 4-1BB extracellular domain …. Nature of the assay: ELISA, coated human 4-1BB-his 200 ng/well; antibody 0 µg/ml (background well).
B2: the “absorbance at 450 nm” value was determined as 0.128.

For B3, the “absorbance at 450 nm” value stood at 0.087.

Turning to B4, the “absorbance at 450 nm” value turned out to be 0.112.

As to B5, the “absorbance at 450 nm” value is 0.096.

For the molecule B1, the “absorbance at 450 nm” value came to 0.081.

The next assay has as its target T1, Mouse 4-1BB extracellular region …. Put plainly: ELISA, coated mouse 4-1BB-his 200 ng/well; antibody 0 µg/ml (background well).
As to B1, the “absorbance at 450 nm” value came to 0.209.

In another assay the target is T3, Monkey 4-1BB extracellular region …. Nature of the assay: ELISA, coated monkey 4-1BB-his 200 ng/well; antibody 0 µg/ml (background well).
Take B2: the “absorbance at 450 nm” value stood at 0.041.

As for B3, the “absorbance at 450 nm” value came out at 0.058.

In the case of B4, the “absorbance at 450 nm” value was 0.041.

B5: the “absorbance at 450 nm” value was determined as 0.043.

On to B1, for which the “absorbance at 450 nm” value is 0.055.

A further assay has as its target T2, Human 4-1BB extracellular domain …. Put plainly: SPR (Biacore 8K), VHH-hFc captured on Protein A chip, human 4-1BB-his as analyte, 25°C, 1:1 fit.
Usually Kd stands for the constant that tells how readily two partners part at equilibrium. The koff is a measure of how fast the partners let go of each other. The term kon denotes the second-order rate constant of association. With B5, the Kd turned out to be 33.3 nM, the koff stood at 0.00274 s⁻¹ and the kon is 82200 M⁻¹ s⁻¹.

B1: the Kd was found to be 38 nM, the koff is 0.0298 s⁻¹ and the kon was 783000 M⁻¹ s⁻¹.
